The record followed here is article PMC11068555.

A word on the stoichiometry N: it is the number of molecules, sites or subunits per partner or assembly.

Test [1] addresses SHC014 S Foldon his (prefusion stabilized spike ectodomain) (sarbecovirus SHC014 (clade 1a) | bacteriophage T4). The test can be described thus: native gel or EMSA. A general note: A gel shift assay detects complexes by their altered migration in electrophoresis.
For test [2], the target named is WIV1 S Foldon his (prefusion stabilized spike ectodomain) (sarbecovirus WIV1 (clade 1a) | bacteriophage T4). Put plainly: native gel or EMSA.

Take “SHC014 S Foldon his (prefusion stabilized spike ectodomain) (domain or fragment)”: the stoichiometry N in test [1] amounted to 3.
In turn, “WIV1 S Foldon his (prefusion stabilized spike ectodomain) (domain or fragment)” yielded a stoichiometry N in test [2] of 3.
